Test results reported in patent US20100166741A1 (Genentech, published 2010).

T1: human FcγRIIb extracellular domain, His-tagged GST fusion (human, UniProt P31994 43-217)
T1 construct: extracellular domain; also called hFcgRIIb; CD32B; not shown: C-terminal Gly/His6/GST tag
T1 sequence (looked up): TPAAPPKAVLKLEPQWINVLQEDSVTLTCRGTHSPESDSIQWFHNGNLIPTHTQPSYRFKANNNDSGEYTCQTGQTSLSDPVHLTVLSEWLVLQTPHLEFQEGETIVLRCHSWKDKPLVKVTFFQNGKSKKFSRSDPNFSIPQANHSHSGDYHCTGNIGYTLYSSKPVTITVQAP

T2: mouse FcγRI extracellular domain, His-tagged GST fusion (mouse, UniProt P26151 25-297)
T2 construct: extracellular domain; also called Mouse I; mFcγRI; not shown: His tag and GST
T2 sequence (looked up): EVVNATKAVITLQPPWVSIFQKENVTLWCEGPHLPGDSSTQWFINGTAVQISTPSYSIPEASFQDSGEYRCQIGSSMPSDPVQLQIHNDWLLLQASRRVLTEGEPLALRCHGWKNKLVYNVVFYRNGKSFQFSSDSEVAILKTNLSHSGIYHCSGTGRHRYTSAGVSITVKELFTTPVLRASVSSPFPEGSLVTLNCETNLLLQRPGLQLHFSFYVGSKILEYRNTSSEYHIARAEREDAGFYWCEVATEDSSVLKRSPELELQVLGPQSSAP

T3: mouse FcγRII extracellular domain, His-tagged GST fusion (mouse, UniProt P08101 30-210)
T3 construct: extracellular domain; also called Mouse II; not shown: His tag and GST
T3 sequence (looked up): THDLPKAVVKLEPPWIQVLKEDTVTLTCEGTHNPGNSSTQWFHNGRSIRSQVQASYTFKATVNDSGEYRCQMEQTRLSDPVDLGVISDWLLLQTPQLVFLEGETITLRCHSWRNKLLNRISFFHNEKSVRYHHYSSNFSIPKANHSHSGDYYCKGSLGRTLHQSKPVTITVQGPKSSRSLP

T4: mouse FcγRIII extracellular domain, His-tagged GST fusion (mouse, UniProt P08508 31-215)
T4 construct: extracellular domain; also called Mouse III; not shown: His tag and GST
T4 sequence (looked up): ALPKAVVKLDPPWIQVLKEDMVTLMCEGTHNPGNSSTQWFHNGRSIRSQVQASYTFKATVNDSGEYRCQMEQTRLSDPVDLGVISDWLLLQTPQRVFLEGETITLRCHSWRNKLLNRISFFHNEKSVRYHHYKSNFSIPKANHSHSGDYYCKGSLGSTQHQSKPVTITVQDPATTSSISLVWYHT

T5: human FcγRIIa extracellular domain, His-tagged GST fusion (human, UniProt P12318 34-217)
T5 construct: extracellular domain; also called hFcgRIIa; CD32A; not shown: C-terminal Gly/His6/GST tag
T5 sequence (looked up): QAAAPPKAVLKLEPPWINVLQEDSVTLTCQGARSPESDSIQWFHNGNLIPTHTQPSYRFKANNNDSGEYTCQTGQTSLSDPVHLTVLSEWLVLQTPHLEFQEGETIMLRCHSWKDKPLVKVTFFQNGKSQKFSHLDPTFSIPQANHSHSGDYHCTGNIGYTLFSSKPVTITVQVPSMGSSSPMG


Key:
[1] = biological target: T6, human FcγRIII (CD16) on NK cells (human, UniProt P08637 17-254); test: cell-based or functional assay
[2] = biological target: T1, human FcγRIIb extracellular domain, …; test: ELISA, captured FcγR-GST;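 note: antibody variants applied as dilution series to receptor wells, with retained antibody read out via an HRP-linked goat F(ab′)2 fragment recognizing human Fab′2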
Procedure: (§1) Binding of the variant antibodies to Fcγ receptors was evaluated using an ELISA-based assay. […] Dilutions of the variant antibodies were added and allowed to bind followed by washing of the wells to remove unbound antibody. […] Bound antibody was detected with an HRP-coupled, Fab′2 fragment of a goat anti-huFab′2 antibody.

[3] = biological target: T2, mouse FcγRI extracellular domain, …; test: ELISA, captured FcγR-GST;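 note: antibody variants applied as dilution series to receptor wells, with retained antibody read out via an HRP-linked goat F(ab′)2 fragment recognizing human Fab′2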
Procedure: as §1

[4] = biological target: T3, mouse FcγRII extracellular domain, …; test: ELISA, captured FcγR-GST;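 note: antibody variants applied as dilution series to receptor wells, with retained antibody read out via an HRP-linked goat F(ab′)2 fragment recognizing human Fab′2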
Procedure: as §1

[5] = biological target: T4, mouse FcγRIII extracellular domain, …; test: ELISA, captured FcγR-GST;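 note: antibody variants applied as dilution series to receptor wells, with retained antibody read out via an HRP-linked goat F(ab′)2 fragment recognizing human Fab′2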
Procedure: as §1

[6] = biological target: T7, human FcγRI extracellular domain, His-tagged GST fusion (human, UniProt P12314 16-292); test: ELISA, captured FcγR-GST
T7 construct: extracellular domain; also called hFcgRI; FcγRIA; not shown: C-terminal Gly/His6/GST tag

[7] = biological target: T5, human FcγRIIa extracellular domain, …; test: ELISA, captured FcγR-GST
Procedure: as §1

[8] = biological target: T7, human FcγRI extracellular domain, …; test: ELISA, FcγR-His-GST captured by anti-GST
Procedure: (§2) MaxiSorp 96-well microwell plates (Nunc, Roskilde, Denmark) were coated with 2 μg/ml anti-GST (clone 8E2.1.1, Genentech), at 100 μl/well in 50 mM carbonate buffer, pH 9.6, at 4° C. overnight. Plates were washed with PBS containing 0.05% polysorbate, pH 7.4 (wash buffer) and blocked with PBS containing 0.5% BSA, pH 7.4, at 150 μl/well. After an hour incubation at room temperature, plates were washed with wash buffer. […] The plates were incubated for one hour and washed with wash buffer. For low affinity Fcγ receptors IIa, IIb, III (F158) and high affinity III (V158), antibodies were incubated with goat F(ab′)₂ anti-κ (Cappel, ICN Pharmaceuticals, Inc., Aurora, Ohio) or anti-λ. (BioSource, Camarillo, Calif.) antibody at a 1:2 (w/w) ratio for 1 hour to form antibody complexes. […] After a two-hour incubation, plates were washed with wash buffer. Bound IgG was detected by adding peroxidase labeled goat F(ab′)₂ anti-human IgG F(ab′)₂ (Jackson ImmunoResearch, West Grove, Pa.) at 100 μl/well in assay buffer. After a one-hour incubation, plates were washed with wash buffer and the substrate 3,3′,5,5′-tetramethyl benzidine (TMB) (Kirkegaard & Perry Laboratories) was added at 100 μl/well. The reaction was stopped by adding 1 M phosphoric acid at 100 μl/well. Absorbance was read at 450 nm on a multiskan Ascent reader (Thermo Labsystems, Helsinki, Finland).
(§3) The absorbance at the midpoint of the standard curve (mid-OD vs. ng/ml) was calculated. The corresponding concentrations of standard and samples at this mid-OD were determined from the titration curves using a four-parameter nonlinear regression curve-fitting program (KaleidaGraph, Synergy software, Reading, Pa.). The relative activity was calculated by dividing the mid-OD concentration of standard by that of sample.

[9] = biological target: T1, human FcγRIIb extracellular domain, …; test: ELISA, FcγR-His-GST captured by anti-GST, complexed IgG
Procedure: as §2, §3

[10] = biological target: T5, human FcγRIIa extracellular domain, …; test: as above
Procedure: as §2, §3

[11] = biological target: T6, human FcγRIII (CD16) on NK cells; test: cell-based or functional assay; remark: listed apart in the source

Binder | ADCC on BJAB cells with NK cells, relative fold increase compared to 9.1RF [1] | fold improvement in binding vs Herceptin (EC50herceptin/EC50sample) [2] | fold improvement in binding vs Herceptin (EC50herceptin/EC50sample) [3] | fold improvement in binding vs Herceptin (EC50herceptin/EC50sample) [4] | fold improvement in binding vs Herceptin (EC50herceptin/EC50sample) [5] | fold improvement in binding vs Herceptin (EC50herceptin/EC50sample) [6] | fold improvement in binding vs Herceptin (EC50herceptin/EC50sample) [7] | binding relative to 9.1-RF [8] | binding relative to 9.1-RF [9] | binding relative to 9.1-RF [10] | ADCC on BJAB cells with NK cells, relative EC50 values against 9.1RF [11]
9.1(5) (antibody, human IgG1, kappa, Fc variant of 9.1RF, expressed in CHO; also called 9.1RF S298A/K326A/E333A/K334A) heavy: EVQLVESGGGLVQPGGSLRLSCAASGFTVTAYYMSWVRQAPGKGLEWVGFIRDKANGYTTEYNPSVKGRFTISRDTSKNTFYLQMNSLRAEDTAVYYCAQVRRALDYWGQGTLVTVSSASTKGPSVFPLAPSSKSTSGGTAALGCLVKDYFPEPVTVSWNSGALTSGVHTFPAVLQSSGLYSLSSVVTVPSSSLGTQTYICNVNHKPSNTKVDKKVEPKSCDKTHTCPPCPAPELLGGPSVFLFPPKPKDTLMISRTPEVTCVVVDVSHEDPEVKFNWYVDGVEVHNAKTKPREEQYNATYRVVSVLTVLHQDWLNGKEYKCKVSNAALPAPIAATISKAKGQPREPQVYTLPPSREEMTKNQVSLTCLVKGFYPSDIAVEWESNGQPENNYKTTPPVLDSDGSFFLYSKLTVDKSRWQQGNVFSCSVMHEALHNHYTQKSLSLSPG light: DIQMTQSPSSLSASVGDRVTITCKSSQSLLYSSNQNNYLAWYQQKPGKAPKLLIYWASTRESGVPSRFSGSGSGTDFTLTISSLQPEDFATYYCQQYYTYPYTFGQGTKVEIKRTVAAPSVFIFPPSDEQLKSGTASVVCLLNNFYPREAKVQWKVDNALQSGNSQESVTEQDSKDSTYSLSSTLTLSKADYEKHKVYACEVTHQGLSSPVTKSFNRGEC | 3 fold | 0.7 fold | 1.9 fold | 1.3 fold | 1.2 fold | 0.6 fold | 0.2 fold | – | – | – | –
9.1(6) (antibody, human IgG1, kappa, Fc variant of 9.1RF, expressed in CHO; also called 9.1RF S298A/E333A/K334A) heavy: EVQLVESGGGLVQPGGSLRLSCAASGFTVTAYYMSWVRQAPGKGLEWVGFIRDKANGYTTEYNPSVKGRFTISRDTSKNTFYLQMNSLRAEDTAVYYCAQVRRALDYWGQGTLVTVSSASTKGPSVFPLAPSSKSTSGGTAALGCLVKDYFPEPVTVSWNSGALTSGVHTFPAVLQSSGLYSLSSVVTVPSSSLGTQTYICNVNHKPSNTKVDKKVEPKSCDKTHTCPPCPAPELLGGPSVFLFPPKPKDTLMISRTPEVTCVVVDVSHEDPEVKFNWYVDGVEVHNAKTKPREEQYNATYRVVSVLTVLHQDWLNGKEYKCKVSNKALPAPIAATISKAKGQPREPQVYTLPPSREEMTKNQVSLTCLVKGFYPSDIAVEWESNGQPENNYKTTPPVLDSDGSFFLYSKLTVDKSRWQQGNVFSCSVMHEALHNHYTQKSLSLSPG light: DIQMTQSPSSLSASVGDRVTITCKSSQSLLYSSNQNNYLAWYQQKPGKAPKLLIYWASTRESGVPSRFSGSGSGTDFTLTISSLQPEDFATYYCQQYYTYPYTFGQGTKVEIKRTVAAPSVFIFPPSDEQLKSGTASVVCLLNNFYPREAKVQWKVDNALQSGNSQESVTEQDSKDSTYSLSSTLTLSKADYEKHKVYACEVTHQGLSSPVTKSFNRGEC | 3 fold | 0.4 fold | 2.5 fold | 0.4 fold | 0.6 fold | 0.7 fold | 0.2 fold | – | – | – | 2.8 fold
9.1(7) (antibody, human IgG1, kappa, Fc variant of 9.1RF, expressed in CHO; also called 9.1RF 239D/332E) heavy: not shown light: DIQMTQSPSSLSASVGDRVTITCKSSQSLLYSSNQNNYLAWYQQKPGKAPKLLIYWASTRESGVPSRFSGSGSGTDFTLTISSLQPEDFATYYCQQYYTYPYTFGQGTKVEIKRTVAAPSVFIFPPSDEQLKSGTASVVCLLNNFYPREAKVQWKVDNALQSGNSQESVTEQDSKDSTYSLSSTLTLSKADYEKHKVYACEVTHQGLSSPVTKSFNRGEC | 7 fold | 17 fold | 62 fold | 19 fold | 9.9 fold | 0.7 fold | 5.3 fold | – | – | – | –

Next, values leading:

ADCC on BJAB cells with NK cells, relative fold increase compared to 9.1RF [1] | fold improvement in binding vs Herceptin (EC50herceptin/EC50sample) [2] | fold improvement in binding vs Herceptin (EC50herceptin/EC50sample) [3] | fold improvement in binding vs Herceptin (EC50herceptin/EC50sample) [4] | fold improvement in binding vs Herceptin (EC50herceptin/EC50sample) [5] | fold improvement in binding vs Herceptin (EC50herceptin/EC50sample) [6] | fold improvement in binding vs Herceptin (EC50herceptin/EC50sample) [7] | binding relative to 9.1-RF [8] | binding relative to 9.1-RF [9] | binding relative to 9.1-RF [10] | ADCC on BJAB cells with NK cells, relative EC50 values against 9.1RF [11] | Binder
– | – | – | – | – | – | – | 0.97 | 0.45 | 0.66 | – | 9.1-RF N434A (antibody, human IgG1, kappa, also called 9.1RF-IgG (N434X), X = A) heavy: not shown light: DIQMTQSPSSLSASVGDRVTITCKSSQSLLYSSNQNNYLAWYQQKPGKAPKLLIYWASTRESGVPSRFSGSGSGTDFTLTISSLQPEDFATYYCQQYYTYPYTFGQGTKVEIKRTVAAPSVFIFPPSDEQLKSGTASVVCLLNNFYPREAKVQWKVDNALQSGNSQESVTEQDSKDSTYSLSSTLTLSKADYEKHKVYACEVTHQGLSSPVTKSFNRGEC
– | – | – | – | – | – | – | 1 | 0.4 | 0.64 | – | 9.1-RF N434W (antibody, human IgG1, kappa, also called Hu9.1RF IgG1 with an N434W mutation; Control (agonistic positive control)) heavy: not shown light: DIQMTQSPSSLSASVGDRVTITCKSSQSLLYSSNQNNYLAWYQQKPGKAPKLLIYWASTRESGVPSRFSGSGSGTDFTLTISSLQPEDFATYYCQQYYTYPYTFGQGTKVEIKRTVAAPSVFIFPPSDEQLKSGTASVVCLLNNFYPREAKVQWKVDNALQSGNSQESVTEQDSKDSTYSLSSTLTLSKADYEKHKVYACEVTHQGLSSPVTKSFNRGEC
12 fold | 3.5 fold | 24 fold | 7.6 fold | 4 fold | 0.7 fold | 0.9 fold | – | – | – | – | 9.1(8) (antibody, human IgG1, kappa, Fc variant of 9.1RF, expressed in CHO; also called 9.1RF 239D/298A/332E) heavy: EVQLVESGGGLVQPGGSLRLSCAASGFTVTAYYMSWVRQAPGKGLEWVGFIRDKANGYTTEYNPSVKGRFTISRDTSKNTFYLQMNSLRAEDTAVYYCAQVRRALDYWGQGTLVTVSSASTKGPSVFPLAPSSKSTSGGTAALGCLVKDYFPEPVTVSWNSGALTSGVHTFPAVLQSSGLYSLSSVVTVPSSSLGTQTYICNVNHKPSNTKVDKKVEPKSCDKTHTCPPCPAPELLGGPDVFLFPPKPKDTLMISRTPEVTCVVVDVSHEDPEVKFNWYVDGVEVHNAKTKPREEQYNATYRVVSVLTVLHQDWLNGKEYKCKVSNKALPAPEEKTISKAKGQPREPQVYTLPPSREEMTKNQVSLTCLVKGFYPSDIAVEWESNGQPENNYKTTPPVLDSDGSFFLYSKLTVDKSRWQQGNVFSCSVMHEALHNHYTQKSLSLSPG light: DIQMTQSPSSLSASVGDRVTITCKSSQSLLYSSNQNNYLAWYQQKPGKAPKLLIYWASTRESGVPSRFSGSGSGTDFTLTISSLQPEDFATYYCQQYYTYPYTFGQGTKVEIKRTVAAPSVFIFPPSDEQLKSGTASVVCLLNNFYPREAKVQWKVDNALQSGNSQESVTEQDSKDSTYSLSSTLTLSKADYEKHKVYACEVTHQGLSSPVTKSFNRGEC
